According to the RNAGym collection of RNA variant scans (doi:10.7554/elife.90254):

B1: LINE1-full (parent)
chain: UACGUAGGUGGUUUUCCCCUGAUAGUGCUAAGGGGGCCUGGAAGUUUGGACUGGGCAGAGCUCAACACAGCGUGGCAAAGUGGCUGUGGCUAGACUGCCUCUCUGGAUUCCUCGUCACUCAGCAGGGCAUCUCUGAGAGAAAUGCC

Variants of: B1
Test: self-cleavage, relative activity (ratio to wild type); higher = more cleavage; in vitro, sequencing; the parent is a self-cleaving ribozyme
With UACGUAGGUGGUUUUCCCCUGAUAGUGCUAAGGGGGCCUGGAAGUUUGGACUGGGCAGAGCUCAACACAGCGUGGCAAAGUGGCUGUGGCUAGACUGCCUCACUGGGUUCCUCGUCACUCAGCAGGGCAUCUCUGAGAGAAAUGCC [U102A A107G] the self-cleavage was 1.06.
UACGUAGGUGGUUUUCCCCUGAUAGUGCUAAGGGGGCCUGGAAGUUUGGACUGGGCAGAGCUCAACACAGCGUGGCAAAGUGGCUGUGGCUAGACUGCCUCUCAGGAUUCCUCGUCACUCAGCAGGGCAUCUCUGGGAGAAAUGCC [U104A A136G] showed a self-cleavage of 1.39.
Variant UACGUAGGUGGUUUUCCCCUGAUAGUGCUAAGGGGGCCUGGAAGUUUGGACUGGGCAAAGCUCAACACAGCGUGGCAAAGUGGCUGUGGCUAGACUGCCUCUCAGGAUUCCUCGUCACUCAGCAGGGCAUCUCUGAGAGAAAUGCC [G58A U104A] has a self-cleavage of 0.03.
For UACGUAGGUGGCUUUCCCAUGAUAGUGCUAAGGGGGCCUGGAAGUUUGGACUGGGCAGAGCUCAACACAGCGUGGCAAAGUGGCUGUGGCUAGACUGCCUCUCUGGAUUCCUCGUCACUCAGCAGGGCAUCUCUGAGAGAAAUGCC [U12C C19A], the self-cleavage was 0.85.
Work on UACGUAGGCGGUUUUCCCCUGAUAGUGCUAAGGGGGCCCGGAAGUUUGGACUGGGCAGAGCUCAACACAGCGUGGCAAAGUGGCUGUGGCUAGACUGCCUCUCUGGAUUCCUCGUCACUCAGCAGGGCAUCUCUGAGAGAAAUGCC [U9C U39C] yielded a self-cleavage of 1.14.
In the case of UACGUAGGUGGUUUUCCCCUGAUAGUGCUAAGGGGGCCUGGAAGUUUGGACUGGGCAGAGCUCAACACAGCGUGGCAAAGUGGCUGUGGCUAGACUGCCUCUCUGGAUUCCUUGUCACUCAGCAGGGCAUCUCUGAGAGAAGUGCC [C113U A142G], the self-cleavage is reported as 0.91.
For UACGUAGGUGGUUUUCCCCUGAUAGUGAUAAGGGGGCCUGGAAGUUUGGACUGGGCAGAGCUCAACACAGCGUGGCAAAGUGGCUGUGGCUAGACUGCCUCUCUGGAUUCCUCGUCACUCAGCAGAGCAUCUCUGAGAGAAAUGCC [C28A G126A], the self-cleavage was 0.66.
With UACGUAGGUGGUUUUCCCCUGAUAGUGCUAAGGGGGCCUGGAAGCUUGGACUGGGCAGAGCUCAACACAGCGUGGUAAAGUGGCUGUGGCUAGACUGCCUCUCUGGAUUCCUCGUCACUCAGCAGGGCAUCUCUGAGAGAAAUGCC [U45C C76U] the self-cleavage was 1.89.
For UACGUAGGUGGUUUUCCCCAGAUAGUGCUAAGGGGGCCUGGAAGUUUGGACUGGGCAGAGCUCAACACAGCGUGGCAAAGUGGCUGAGGCUAGACUGCCUCUCUGGAUUCCUCGUCACUCAGCAGGGCAUCUCUGAGAGAAAUGCC [U20A U87A], the self-cleavage was 0.11.
In the case of UACGUAGGUGGUUUUCCCCUGACAGUGCUUAGGGGGCCUGGAAGUUUGGACUGGGCAGAGCUCAACACAGCGUGGCAAAGUGGCUGUGGCUAGACUGCCUCUCUGGAUUCCUCGUCACUCAGCAGGGCAUCUCUGAGAGAAAUGCC [U23C A30U], the self-cleavage is reported as 1.15.
Work on UACGUAGGUGGUUUUCCCCUGAUAGUGCUAGGGGGGCCUGGAAGUUUGGACUGGGCAGAGCUCAACACAGCGUGGCAAAGUAGCUGUGGCUAGACUGCCUCUCUGGAUUCCUCGUCACUCAGCAGGGCAUCUCUGAGAGAAAUGCC [A31G G82A] yielded a self-cleavage of 2.09.
For UGCGUAGGUGGUUUUCACCUGAUAGUGCUAAGGGGGCCUGGAAGUUUGGACUGGGCAGAGCUCAACACAGCGUGGCAAAGUGGCUGUGGCUAGACUGCCUCUCUGGAUUCCUCGUCACUCAGCAGGGCAUCUCUGAGAGAAAUGCC [A2G C17A], the self-cleavage was 1.56.
UACGUAGGUGGUUUUCCCCUGAUAGUGCUAAGGGGGCUUGGAAGUUGGGACUGGGCAGAGCUCAACACAGCGUGGCAAAGUGGCUGUGGCUAGACUGCCUCUCUGGAUUCCUCGUCACUCAGCAGGGCAUCUCUGAGAGAAAUGCC [C38U U47G] showed a self-cleavage of 0.78.
For UACGUAGGUGGUUUUCCCCUGAUAGUGCUAAGGGGGCCUGGAAGUUUGGACUGGGCAGAGCUCAACACAGCGUGGCAAAGUGGCUGUGGCUAGACUGCCUCACUGGAUUCCUCGUCACUCAGCAGGGCAUCUCUGGGAGAAAUGCC [U102A A136G], the self-cleavage was 1.78.
UACGUAGGUGGUUUUCCCCUGACAGUGCUAAGGGGGCCUGGAAGUUUGGACUGGGCAGAGCUCAACACAGCGUGGCAAAGUGGCUGUGGCUAGACUGCCUCUCUGGAUUCCUCGUCACUCAGCAGGGCAUCUCUGAGAGAAAUGCA [U23C C146A] gave a self-cleavage of 0.
In the case of UACGUAGGUGGUUUUCCCCUGAUAGUGCUAAGGGGGCCUGGAAGUUUGGACUGGGCAGAGCUCAACAUAGCGUGGCAAAGUGGCUGUGGCUAGACUGCCUCUCUGGAUUCCCCGUCACUCAGCAGGGCAUCUCUGAGAGAAAUGCC [C68U U112C], the self-cleavage is reported as 0.06.
UACGUAGGUGGUUUUCCCCUGAUAGUGCUAAGGGGGCCUGGAAGUUUGGACUGGGCAGAGUUCAACACAGCGUGGCAAAGUGGCUGUGGCUAGACUGCCUCUCUGGAUUCCUCGCCACUCAGCAGGGCAUCUCUGAGAGAAAUGCC [C61U U115C] showed a self-cleavage of 0.02.
With UACGUAGGUGGCUUUCCCCUGAUAGUGCUAAGGGGGCCUGGAAGUUUGGACUGGGCAGAGCUCAACACAGCGUGGCAAAGUAGCUGUGGCUAGACUGCCUCUCUGGAUUCCUCGUCACUCAGCAGGGCAUCUCUGAGAGAAAUGCC [U12C G82A] the self-cleavage was 1.68.
UACGUAGGUGGUUUUCCCCUGGUAGUGCUAAGGGGGCCUGGAAGUUUGGACUGGGCAGAGCUCAACACAGCGGGGCAAAGUGGCUGUGGCUAGACUGCCUCUCUGGAUUCCUCGUCACUCAGCAGGGCAUCUCUGAGAGAAAUGCC [A22G U73G] showed a self-cleavage of 1.49.
Variant UACGUAGGCGGUUUUCCCCUGAUAGUGCUAAGGGGGCCUGGAAGUUUGGACCGGGCAGAGCUCAACACAGCGUGGCAAAGUGGCUGUGGCUAGACUGCCUCUCUGGAUUCCUCGUCACUCAGCAGGGCAUCUCUGAGAGAAAUGCC [U9C U52C] has a self-cleavage of 1.36.
Variant UACGUAGGUGGUUUUCCCUUGAUAGUGCUAAGGGGGCCUGGAAGUUUAGACUGGGCAGAGCUCAACACAGCGUGGCAAAGUGGCUGUGGCUAGACUGCCUCUCUGGAUUCCUCGUCACUCAGCAGGGCAUCUCUGAGAGAAAUGCC [C19U G48A] has a self-cleavage of 0.72.
Variant UACGUAGGUGGUUCUCCCCUGAUAGUGCUAAGGGGGCCUGGAAGUUUGGACUGGGCAGAGCUCAACACAGCGUGGCCAAGUGGCUGUGGCUAGACUGCCUCUCUGGAUUCCUCGUCACUCAGCAGGGCAUCUCUGAGAGAAAUGCC [U14C A77C] has a self-cleavage of 2.68.
Variant UACGUAGGUGGUUUUCCCCUGAUAGUGCUAAGGGGGCCUGGAAGUUUGGACUGGGCAGAACUCAACACAGCGUGGCAAAGUGGCUGUGGCUAGACUGCCUCUCUGGAUUCCACGUCACUCAGCAGGGCAUCUCUGAGAGAAAUGCC [G60A U112A] has a self-cleavage of 0.04.
For UACGUAGGUGGUCUUCCCCUGAUAGUGCUAAGGGGGCCUGGAAGUUUGGACUGGGCAGAGCUCAACACAGCGUGGCAAAGUGGCUGUGGCUAGACUGCCUCUCUGGAUUCCUCGUCACUCAGCAGGGCAUCUCUGAGAGAAAAGCC [U13C U143A], the self-cleavage was 1.17.
For CACGUAGGUGGUUUUCCCCUGAUAGUGCUAAGGGGGCCUGGAAGGUUGGACUGGGCAGAGCUCAACACAGCGUGGCAAAGUGGCUGUGGCUAGACUGCCUCUCUGGAUUCCUCGUCACUCAGCAGGGCAUCUCUGAGAGAAAUGCC [U1C U45G], the self-cleavage was 0.48.
Work on UACGUAGGUGGUUUUCCCCUGAUAGUGCUAAGGGGGCCUGGAAGUUUGGACUGGGCAGAGCUCAACACAGCGUGGCAAAGUGGCUGUGGCUAGACUGCCUCUCUGGAUUCCUCGUCACUCAGCGGGGCAUCUCAGAGAGAAAUGCC [A124G U134A] yielded a self-cleavage of 0.39.
For UACGUAGGUGGUUUUCCCCUGAUAGUGCUAAGGGGGCCUGGAAGUUUGGACUGGGCAGAGCUCAACACAGCGUGGCAAAGUGGCUGUGGCUAGACUGCCUCUCAGGAUUCCUUGUCACUCAGCAGGGCAUCUCUGAGAGAAAUGCC [U104A C113U], the self-cleavage was 0.51.
UACGUAGGUGGUUUUCCCCUGAUAGUGCUAGGGGGGCCUGGAAGUUUGGACUGGGCAGAGCUCAACACAGCAUGGCAAAGUGGCUGUGGCUAGACUGCCUCUCUGGAUUCCUCGUCACUCAGCAGGGCAUCUCUGAGAGAAAUGCC [A31G G72A] showed a self-cleavage of 0.77.
With UACGUAGGUGGUAUUCCCCUGAUAGUGCUAAGGGGGCCUGGAAGUUUGGACUGGGCAGAGCUCAACACGGCGUGGCAAAGUGGCUGUGGCUAGACUGCCUCUCUGGAUUCCUCGUCACUCAGCAGGGCAUCUCUGAGAGAAAUGCC [U13A A69G] the self-cleavage was 0.25.
Work on UACGUAGGUGGUUUUCCCCUGAUAGUGCUAAGGGGGCCCGGAAGUCUGGACUGGGCAGAGCUCAACACAGCGUGGCAAAGUGGCUGUGGCUAGACUGCCUCUCUGGAUUCCUCGUCACUCAGCAGGGCAUCUCUGAGAGAAAUGCC [U39C U46C] yielded a self-cleavage of 1.56.
For UACGUAGGUGGUUUUCCCCUGAUAGUGCUAAGGGGGCCUGGAAGUUUGCACUGGGCAGAGCUCAACACAGCGUGGCAAAGUGGCUGUGGCUAGACUGCCUCUCUGGAUUCCUCGUCACUCAGCAGGGCAUCUCUGAGGGAAAUGCC [G49C A138G], the self-cleavage was 1.59.
In the case of UGCGUAGGUGGUUUUCCCCUGAUAGUGCUAAGGGGGCCUGGAUGUUUGGACUGGGCAGAGCUCAACACAGCGUGGCAAAGUGGCUGUGGCUAGACUGCCUCUCUGGAUUCCUCGUCACUCAGCAGGGCAUCUCUGAGAGAAAUGCC [A2G A43U], the self-cleavage is reported as 1.34.
UACGUAGGUGGUCUUCCCCUGAUAGUGCUAAGGGGGCCUGGAAGUUUGGAUUGGGCAGAGCUCAACACAGCGUGGCAAAGUGGCUGUGGCUAGACUGCCUCUCUGGAUUCCUCGUCACUCAGCAGGGCAUCUCUGAGAGAAAUGCC [U13C C51U] gave a self-cleavage of 0.97.
In the case of UACGUAGGUGGUUUUCCCCUGAUAGUGCUAAGGGGGCCUGGAAGUUCGGACUGGGCAGUGCUCAACACAGCGUGGCAAAGUGGCUGUGGCUAGACUGCCUCUCUGGAUUCCUCGUCACUCAGCAGGGCAUCUCUGAGAGAAAUGCC [U47C A59U], the self-cleavage is reported as 0.6.
UACGUAGGUGGUUUUCCCCUGAUAGUGCUAAGGGGGCCUGGAAGUUUGGACUGGGCAGAGCUCAACACAGCGUGGCAAAGUGGCUGUGGCUAGACUUCCUCUCUGGAUUCCUCGUCACUCAGUAGGGCAUCUCUGAGAGAAAUGCC [G97U C123U] gave a self-cleavage of 0.03.
For UACGUAGGUGGUUUUCCCCUGAUAGUGCUAAGGGGGCCUGGAAGUUUGAACUGGGCAGAGCUCAACACAGCGUGGCAAAGUGGCUGUGGCUAGACUGCCUCUCUGGAUUCCUCGUCACUCAGCAGGGCAUCUCUGAGAGAGAUGCC [G49A A141G], the self-cleavage was 1.64.
For UACGUAGGUGGUUUUCCCCUGAUAGUGCUAAGGGGGCCUGGAAGUUUGGACUGGGCAGAGCUCAACACAGCGUGGCAAAGUGGCUGCGGCUAGACUGCCUCUCUGGGUUCCUCGUCACUCAGCAGGGCAUCUCUGAGAGAAAUGCC [U87C A107G], the self-cleavage was 0.27.
UACGUAGGUGGUUUUCCCCUGAUAGUGCUAAGGGGGCCUGGAAGUUUGGACUGGGCAGAGCUCAACACAGCGUGGCUAAGUGGCUGUGGCUAGACUGCCUCUCUGGCUUCCUCGUCACUCAGCAGGGCAUCUCUGAGAGAAAUGCC [A77U A107C] gave a self-cleavage of 1.21.
UACGUAGGUGGUUUUCCCCUGAUAGUGCUAAGGGGGCCUGGAAGUUUGGACUGGGCAGAGCUCAACUCAGCGUGGCAAAGUGGCUGUGGCUAGACUGCCUCUCUGGAUUCCUCGUCACUCCGCAGGGCAUCUCUGAGAGAAAUGCC [A67U A121C] showed a self-cleavage of 0.2.
